Measured values reported in the supplement of paper PMC10567573.

B1: C10orf62 (parent)
chain: RALEEVEMKLQKNFLTQRENTIAG

Variants of: B1
Experiment: protein stability index of a GFP-peptide fusion (GPS, HEK-293T) (PSI 1-6); higher = more stable
Settings: c terminus: a fixed tail appended
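Note: lentivirally expressed fusions sorted by FACS into six bins by GFP to DsRed ratio, PSI derived from sequencing read proportions per bin multiplied by bin number.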

Protein stability index, by site and new letter:
M8: A 4.09; D 4.6; N 3.75; K 2.63; S 4.08; P 3.94; V 3.35; L 3.3; F 3.65; Y 3.6; W 2.81; H 4.23; I 3.26; T 4.23; R 3.38; Q 4.12; E 4.92; C 3.58; G 4.64
Q11: C 3.52; V 2.82; A 3.31; H 2.94; I 2.13; M 2.64; L 2.28; D 4.43; P 3.9; G 3.63; E 4.28; K 3.31; F 2.44; S 3.48; T 3.73; N 3.51; R 3.71
L3: I 4.17; F 4.04; Q 4.47; W 2.95; D 4.8; Y 3.5; S 4.05; H 4.34; G 4.31; T 4.12; N 4.91; R 4.09; V 4.27; E 5.08; C 4.02; K 4.33; P 4.26; A 4.17; M 3.86
E5: N 3.98; S 3.51; F 2.11; H 3.02; Q 3.22; L 2; T 3.02; C 2.21; Y 2.27; K 3.76; W 1.85; V 1.51; M 2.23; R 3.12; P 3.19; I 1.93; D 3.67; A 2.7; G 3.6
V6: Q 3.93; E 4.75; K 4.43; L 3.52; I 2.52; P 4.17; A 3.19; H 4.58; T 3.73; Y 4.03; S 4.27; N 4.33; D 4.17; F 3.76; C 3.56; W 3.76; G 4.3; R 4.13; M 3.23
K9: L 1.73; R 2.31; C 2.41; N 2.98; G 3.75; F 2.24; V 2.55; E 3.9; M 2.79; T 3.4; I 2.08; W 1.4; H 2.93; S 3.06; P 3.51; Q 3.13; D 4.13; A 3.09; Y 1.67
E4: K 3.36; H 3.18; R 4; L 2.31; T 3.72; I 1.99; C 3.31; Y 2.56; A 2.9; V 2.36; S 3.64; P 4.36; D 3.44; F 3.13; W 1.92; G 4.05; N 3.29; Q 2.89; M 2.63
L10: Y 3.67; M 3.75; D 4.56; S 4.66; V 4.04; Q 3.22; F 3.37; I 3.5; R 3.4; H 4; E 5.17; N 4.25; C 3.58; A 4.13; W 2.88; K 4.35; P 4.4; T 4.4; G 4.29
E7: F 2.17; I 3.36; G 2.84; S 2.97; C 1.8; R 2.29; A 2.02; P 3.98; Q 3.35; T 2.6; M 1.33; V 1.27; K 1.96; H 2.17; Y 2.38; N 3.61; D 3.69
